The values below come from US20150368323A1 (MorphoSys, published 2015).

Experiment [1] addresses T1, Linear peptide, loop 1 of MprF (Staphylococcus aureus, added N-terminal Cysteine coupled to carrier protein BSA or transferrin; FIG. 2 legend calls it biotinylated).
T1 construct: coated as BSA or transferrin conjugate in the ELISA; also called linear loop 1 peptide
T1 peptide: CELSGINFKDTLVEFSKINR
In words: ELISA, IgG on the peptide used in its selection (Table 2). Background: An ELISA detects its analyte on a solid surface through an enzyme-linked reagent.

Experiment [2] has as its target T2, MprF protein of Staphylococcus aureus (Staphylococcus aureus, UniProt Q2G2M2 1-840).
T2 construct: Presented on whole S. aureus cells (Protein A deletion mutant, delta spa; SA113 delta spa in the functional assays); also called MprF on S. aureus
T2 sequence: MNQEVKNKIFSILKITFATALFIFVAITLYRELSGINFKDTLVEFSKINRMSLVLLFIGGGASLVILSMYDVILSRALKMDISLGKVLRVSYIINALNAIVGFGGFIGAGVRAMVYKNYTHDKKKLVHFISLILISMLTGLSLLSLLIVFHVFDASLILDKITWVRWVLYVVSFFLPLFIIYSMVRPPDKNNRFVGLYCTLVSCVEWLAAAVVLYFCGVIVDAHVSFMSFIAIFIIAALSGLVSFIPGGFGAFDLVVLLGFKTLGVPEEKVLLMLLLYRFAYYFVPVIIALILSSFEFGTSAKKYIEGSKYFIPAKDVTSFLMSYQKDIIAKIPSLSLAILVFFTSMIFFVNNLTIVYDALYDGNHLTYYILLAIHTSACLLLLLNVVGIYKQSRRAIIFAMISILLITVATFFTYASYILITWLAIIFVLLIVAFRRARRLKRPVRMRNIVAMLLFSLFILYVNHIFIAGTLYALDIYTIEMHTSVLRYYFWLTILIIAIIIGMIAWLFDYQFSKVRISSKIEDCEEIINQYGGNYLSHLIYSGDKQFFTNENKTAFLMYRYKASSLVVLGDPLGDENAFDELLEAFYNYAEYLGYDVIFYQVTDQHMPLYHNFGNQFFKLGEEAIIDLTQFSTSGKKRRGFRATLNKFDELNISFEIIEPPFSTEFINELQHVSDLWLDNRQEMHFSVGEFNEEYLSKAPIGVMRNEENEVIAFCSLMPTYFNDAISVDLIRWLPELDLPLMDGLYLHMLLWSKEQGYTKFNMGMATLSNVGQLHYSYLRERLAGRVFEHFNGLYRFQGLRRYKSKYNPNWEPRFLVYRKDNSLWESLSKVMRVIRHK
In words: whole cell ELISA on S. aureus delta spa versus delta spa delta mprF.

In experiment [3] the target is T2, MprF protein of Staphylococcus aureus. In words: whole cell ELISA on S. aureus; E. coli as negative control.
The target in experiment [4] is T3, Linear peptide, loop 4 of MprF (Staphylococcus aureus, also: N-terminal Cys coupled to BSA or transferrin, called biotinylated legend).
T3 construct: coated as BSA or transferrin conjugate in the ELISA; also called linear loop 4 peptide
T3 peptide: CGLGFKTLGVPEEKV
In words: ELISA, IgG on the peptide used in its selection (Table 2).

Ends that are not written are not given here.

B1: M-L1 (antibody, V domains shown)
VH: QVQLVQSGAEVKKPGSSVKVSCKASGGTFNSYAIHWVRQAPGQGLEWMGGIIPIFGIANYAQKFQGRVTITADESTSTAYMELSSLRSEDTAVYYCARDQYTYDYYRAFDYWGQGTLVTVSS
VL: DIVLTQSPATLSLSPGERATLSCRASQSVRDNLAWYQQKPGQAPRLLIYGASNRATGIPARFSGSGSGTDFTLTISSLEPEDFAVYYCQQYDHSPRTFGQGTKVEIKR
notes: Framework VH1A kappa 3
For the molecule B1, the binding result in experiment [1] and in experiment [2] was “binds” in each case.

B2: M-C5.2 (antibody, V domains shown)
VH: EVQLLESGGGLVQPGGSLRLSCAASGFTFSSYAVHWVRQAPGKGLEWVSVISGRGGSTYYADSVKGRFTISRDNSKNTLYLQMNSLRAEDTAVYYCARDHGYFDYWGQGTLVTVSS
VL: DIQMTQSPSSLSASVGDRVTITCRASQTISNHLGWYQQKPGKAPKLLIYTASNLQSGVPSRFSGSGSGTDFTLTISSLQPEDFATYYCQQYSHSSYTFGQGTKVEIKR
notes: Framework VH3-23 kappa 1; also called M-05.2
On to B2, for which the binding result in experiment [3] is listed as “binds”.

B3: M-C5.1 (antibody, V domains shown)
VH: QVQLVQSGAEVKKPGSSVKVSCKASGGTFSSYAISWVRQAPGQGLEWMGGIVPIFGTANYAQKFQGRVTITADESTSTAYMELSSLRSEDTAVYYCARVRYGYWDVWGQGTLVTVSS
VL: DIQMTQSPSSLSASVGDRVTITCRASQDIANWLNWYQQKPGKAPKLLIYAASSLQSGVPSRFSGSGSGTDFTLTISSLQPEDFATYYCQQYISLPITFGQGTKVEIKR
notes: Framework VH1A kappa 1; also called M-05.1
For the molecule B3, in experiment [2], the binding result is “binds”.

B4: M-C6.2 (antibody, V domains shown)
VH: QVQLVQSGAEVKKPGSSVKVSCKASGGTFSSYAISWVRQAPGQGLEWMGGIIPILGIANYAQKFQGRVTITADESTSTAYMELSSLRSEDTAVYYCARSLPYRSDLYGFSRWSYHRVGMDVWGQGTLVTVSS
VL: DIQMTQSPSSLSASVGDRVTITCRASQDISNTLNWYQQKPGKAPKLLIYAASTLQSGVPSRFSGSGSGTDFTLTISSLQPEDFATYYCQQVGSFPYTFGQGTKVEIKR
notes: Framework VH1A kappa 1
With B4, in experiment [3], the binding result is listed as “binds”.

B5: M-L4 (antibody, V domains shown)
VH: EVQLLESGGGLVQPGGSLRLSCAASGFTFRSYAMSWVRQAPGKGLEWVSIISYDGSSTYYADSVKGRFTISRDNSKNTLYLQMNSLRAEDTAVYYCARTATSGSRGYFDYWGQGTLVTVSS
VL: DIQMTQSPSSLSASVGDRVTITCRASQDISSWLNWYQQKPGKAPKLLIFGASTLQSGVPSRFSGSGSGTDFTLTISSLQPEDFATYYCQQHYTSPVTFGQGTKVEIKR
notes: Framework VH3-23 kappa 1
Turning to B5, the binding result in experiment [4] and in experiment [3] was “binds” in each case.

B6: M-C6.1 (antibody, V domains shown)
VH: QVQLVQSGAEVKKPGSSVKVSCKASGGTFSIYAISWVRQAPGQGLEWMGGIIPEFGTANYAQKFQGRVTITADESTSTAYMELSSLRSEDTAVYYCARSQIYTLSYPKWFDFWGQGTLVTVSS
VL: DIQMTQSPSSLSASVGDRVTITCRASQDISNYLNWYQQKPGKAPKLLIYDASNLQSGVPSRFSGSGSGTDFTLTISSLQPEDFATYYCLQYLQSPKTFGQGTKVEIKR
notes: Framework VH1A kappa 1
In the case of B6, in experiment [3], the binding result is recorded as “binds”.

B7: M-C4.2 (antibody, V domains shown)
VH: EVQLLESGGGLVQPGGSLRLSCAASGFTFSSYAMHWVRQAPGKGLEWVSVISSVGSSTYYADSVKGRFTISRDNSKNTLYLQMNSLRAEDTAVYYCARGGLDVWGQGTLVTVSS
VL: DIQMTQSPSSLSASVGDRVTITCRASQDISKYLNWYQQKPGKAPKLLIYAASRLQSGVPSRFSGSGSGTDFTLTISSLQPEDFATYYCQQGDSTPFTFGQGTKVEIKR
notes: Framework VH3-23 kappa 1
In the case of B7, the binding result in experiment [3] is “binds”.

B8: M-C1 (antibody, V domains shown)
VH: EVQLLESGGGLVQPGGSLRLSCAASGFTFSSYAMNWVRQAPGKGLEWVSVISSDGSDTYYADSVKGRFTISRDNSKNTLYLQMNSLRAEDTAVYYCARESYYIGWDYWGQGTLVTVSS
VL: DIVLTQSPATLSLSPGERATLSCRASQRVSSSFLAWYQQKPGQAPRLLIYLASNRATGIPARFSGSGSGTDFTLTISSLEPEDFAVYYCLQYGHYPPTFGQGTKVEIKR
notes: Framework VH3-23 kappa 3
Consider B8, for which, in experiment [3], the binding result is listed as “binds”.

B9: M-C4.5 (antibody, V domains shown)
VH: QVQLQQSGPGLVKPSQTLSLTCAISGDSVSSNSAAWNWIRQSPSRGLEWLGRTYYRSKWYNDYAVSVKSRITINPDTSKNQFSLQLNSVTPEDTAVYYCARSAEPSYAYYHGFDYWGQGTLVTVSS
VL: DIQLTQSPSFLSASVGDRVTITCRASQGISSYLAWYQQKPGKAPKLLIYAASTLQSGVPSRFSGSGSGTEFTLTISSLQPEDFATYYCQQRIIFPQTFGQGTKVEIKR
notes: Selected from the MorphoSys Ylanthia library; framework VH6-1
Take B9: in experiment [3], the binding result is “binds”.

B10: M-C4.3 (antibody, V domains shown)
VH: QVQLVQSGAEVKKPGSSVKVSCKASGGTFSDHTISWVRQAPGQGLEWMGGIIPIVGIANYAQKFQGRVTITADESTSTAYMELSSLRSEDTAVYYCAREYYVPDSGWFDYWGQGTLVTVSS
VL: DIQMTQSPSSLSASVGDRVTITCRASQDISDYLVWYQQKPGKAPKLLIYDASNLQSGVPSRFSGSGSGTDFTLTISSLQPEDFATYYCQQYYHYRTFGQGTKVEIKR
notes: Framework VH1A kappa 1
In the case of B10, in experiment [3], the binding result was “binds”.
